{"source": "paper PMC8565817", "key": {"Bemarituzumab (human)": {"target": "Bemarituzumab (human)", "test": "SPR"}, "[1]": {"target": "FPA144-F (the fucosylated version of bemarituzumab) (human)", "test": "SPR"}}}
{"substance": "human Fc gamma receptor IIIa (V158)", "values": [{"measurement": "Kd", "setting": "Bemarituzumab (human)", "result": 9.2, "unit": "nM"}, {"measurement": "Kd", "setting": "[1]", "result": 207, "unit": "nM"}]}
